Assay [1] addresses CRT4LP (PASylated CRT-targeted L-ASNase: CRT4 monobody - L-ASNase - PAS200 tag - His6) (E. coli).
In assay [2] the target is CRT3LP (PASylated CRT-targeted L-ASNase: CRT3 monobody - L-ASNase - PAS200 tag - His6) (E. coli).

B1: recombinant calreticulin protein (rCRT) (other)
chain: EPAVYFKEQFLDGDGWTSRWIESKHKSDFGKFVLSSGKFYGDEEKDKGLQTSQDARFYALSASFEPFSNKGQTLVVQFTVKHEQNIDCGGGYVKLFPNSLDQTDMHGDSEYNIMFGPDICGPGTKKVHVIFNYKGKNVLINKDIRCKDDEFTHLYTLIVRPDNTYEVKIDNSQVESGSLEDDWDFLPPKKIKDPDASKPEDWDERAKIDDPTDSKPEDWDKPEHIPDPDAKKPEDWDEEMDGEWEPPVIQNPEYKGEWKPRQIDNPDYKGTWIHPEIDNPEYSPDPSIYAYDNFGVLGLDLWQVKSGTIFDNFLITNDEAYAEEFGNETWGVTKAAEKQMKDKQDEEQRLKEEEEDKKRKEEEEAEDKEDDEDKDEDEEDEEDKEEDEEEDVPGQAKDEL
As usually defined, the Kd is a measure of binding affinity in units of concentration. A high value points to a looser complex. As to B1, the figures for the equilibrium dissociation constant (Kd) in assay [1] and in assay [2] were 2.3 nM and 2.07 nM, respectively.
